Experimental data taken from patent publication US9011913B2, “Use of functionalized magnetic nanoparticles in cancer detection and treatment” (The Regents of the University of California, priority 2008, dated 2015).
No end group written: not given here.

What was measured:
[1] = Shelf-life of the compounds; type: physicochemical
[2] = Tissue half-life of the particles; conditions: in vivo
[3] = system: adrenal gland; assay: MRI of adrenal glands after ACTH-MNP injection; type: in vivo, mouse; conditions: tail vein
Procedure: ACTH-MNP was injected through tail vein (approximately 1 μg iron-oxide per gram of body weight) in a 1-day old mouse and a 60-day old mouse. MR images (T2, TE 6000, TR=[…], 0.4-1 mm slice thickness, 3 cm FOV, Brucker Biospin 7T) were obtain before, and up to 3 hours after injection with these contrast agents.

[4] = system: AtT-20 cells; assay: Functional studies of tumor cells: c-AMP production; type: cell-based, Murine
Procedure: Functional studies of tumor cells. Murine pituitary tumor cell lines (AtT-20 cells; American Type Culture Collection designation CCL-89™) were incubated with CRF and CRF-MNP preparations at 6 different molar concentrations of CRF and CRF-equivalent concentration of CRF-MNP (10^−12-10^−7 molar, factor of 10 increase per step). Production of c-AMP (nM) was measured after equivalent times of incubation with all the preparations.

[5] = equivalent CRF concentrations 10^−12-10^−7 molar

ACTH-MNP: Adrenocorticotropin Hormone (ACTH)-conjugated dextran-coated and epoxy surface-modified magnetonanoparticles, 10-15 nm diameter (SYSMEHFRWGKPVGKKRRPVKVYPNGAEDESAEAFPLEF; also: conjugated to dextran-coated, epoxy surface-modified magnetic nanoparticles; UniProt P01189 138-176, looked up)
shelf-life [1]: 2-3 months
tissue half-life [2]: order of hours to days
uptake in the adrenals ([3]; 1-day old mouse, 5 μl): increased uptake (decreased signal intensity)
uptake in the adrenals ([3]; 60 day old mouse, 100 μl): increased uptake (decreased signal intensity)

CRF-MNP: CRF-conjugated dextran-coated and maleimide surface-modified magnetonanoparticles, 10-15 nm diameter
shelf-life [1]: 6-12 months
tissue half-life [2]: order of hours to days
cytotoxicity ([4]; AtT-20 cells): not cytotoxic
functional properties of CRF while conjugated to the nanoparticles ([4]; cellular level): retains its functional properties
decrease in potency compared to CRF (c-AMP production) [4, 5]: approximately 10 fold
increase in efficacy compared to CRF (c-AMP production) [4, 5]: two-fold increase
